Data taken from patent US20250223366A1, “MONOCLONAL ANTIBODIES AND BISPECIFIC ANTIBODY AGAINST C-MET” (BIOTHEUS INC., priority 2022, published 2025).
Substitutions are numbered along the chain they refer to.

B1: Amivantamab analog Afu: control bispecific antibody obtained from the afucosylation cell line with gene knockout (antibody, chains of the INN, looked up, V domains shown)
VH: QVQLVESGGGVVQPGRSLRLSCAASGFTFSTYGMHWVRQAPGKGLEWVAVIWDDGSYKYYGDSVKGRFTISRDNSKNTLYLQMNSLRAEDTAVYYCARDGITMVRGVMKDYFDYWGQGTLVTVSS
VL: AIQLTQSPSSLSASVGDRVTITCRASQDISSALVWYQQKPGKAPKLLIYDASSLESGVPSRFSGSESGTDFTLTISSLQPEDFATYYCQQFNSYPLTFGGGTKVEIK
VH2: QVQLVQSGAEVKKPGASVKVSCETSGYTFTSYGISWVRQAPGHGLEWMGWISAYNGYTNYAQKLQGRVTMTTDTSTSTAYMELRSLRSDDTAVYYCARDLRGTNYFDYWGQGTLVTVSS
VL2: DIQMTQSPSSVSASVGDRVTITCRASQGISNWLAWFQHKPGKAPKLLIYAASSLLSGVPSRFSGSGSGTDFTLTISSLQPEDFATYYCQQANSFPITFGQGTRLEIK
modifications: afucosylated
notes: control bispecific antibody obtained from the afucosylation cell line with gene knockout
B2: 136: anti-c-MET antibody from yeast display screening; VH SEQ ID NO: 9, VL SEQ ID NO: 11 (antibody, V domains shown)
VH: EVQLQESGPGLVKPSETLSLTCTVSGGSVTSVNYYWKWIRQPPGKGLEWIGYISYSGNTNYNPSLKSRVTISVDTSKNQFSLKLSSVTAADTAVYYCVRAPYYYMDVWSKGTTVTVSS
VL: DIVMTQSPSSVSASVGDRVTITCRASQGISSWLAWYQQKPGKAPKLLIYAVSSLQSGVPSRFSGSGSGTDFTLTISSLQPEDFATYFCQQANSFPLTFGGGTKVEIK
B3: 187: anti-c-MET antibody from yeast display screening; VH SEQ ID NO: 13, VL SEQ ID NO: 15 (antibody, V domains shown)
VH: ELQLQESGPGLVKPSETLSLTCTVSGGSISSSSYYWGWIRQSPGKGLEWIGSRYYSGNTYYNPSLKSRVTMSVDTSKNQFSLKLRSVTAADTAVYYCARQVYDYWRDWGQGALVTVSS
VL: B2 VL with K45N, V51A, S53N, Q55P, D70V, F87Y, A91S

Key:
[1] = tested on: H292 human lung cancer tumor cells; assay: Experimental Model 1: H292 tumor-bearing model; assay type: in vivo, CB-17 SCID mice; details: H292, Day 7: 10 mg/kg; Day 21: 2 mg/kg; last measured 29 days after inoculation
Procedure: In this experiment, CB-17 SCID mice were subcutaneously inoculated with H292 human lung cancer tumor cells to establish a tumor-bearing model and determine the anti-tumor effect of the anti-EGFRxc-Met bispecific antibody. Sufficient H292 cells were cultured and expanded in vitro, and the cells were collected after trypsin digestion. After washing with PBS for 3 times, the cells were counted and inoculated subcutaneously at the right abdomen of female 8-week-old CB-17 SCID mice (purchased from Beijing Weitong Lihua) at an amount of 3×10^6 cells/mouse. The subcutaneous tumor formation of tumor cells in the mice was observed daily, and the maximum width axis W and the maximum length axis L of the subcutaneous tumor on the right abdomen of each animal were measured with a vernier caliper, and the weight of each mouse was weighed with an electronic balance. The subcutaneous tumor volume on the right abdomen of each mouse was calculated according to the following formula: tumor volume T=1/2×W×W×L. The mice with too large and too small tumor volumes were eliminated, and the remained mice were divided into 4 groups according to the average tumor volume, with 6 mice in each group. […]
The tumor volume and weight of mice were measured 2 to 3 times a week. The weight and tumor volume of mice were measured for the last time 29 days after the tumor cell inoculation, and then the mice were euthanized.

[2] = tested on: A375/H1975/HCC827 cells; assay: ADCC induction, CD16a-NFAT-Luc Jurkat reporter gene cells; assay type: cell-based, human; details: A375, H1975, HCC827 target cells, CD16a-NFAT-Luc Jurkat effector cells, 6 h, FIG. 9
From the text: A375 cells were human malignant melanoma cells and purchased from Addexbio, which were capable of expressing EGFR and c-Met receptors. H1975 cells were human lung adenocarcinoma cells and purchased from Addexbio, which were capable of highly expressing EGFR and c-Met receptors. HCC827 cells were human non-small cell lung cancer cells and purchased from the Cell Bank of the Chinese Academy of Sciences, which were capable of highly expressing EGFR and c-Met receptors. […]

[3] = tested on: monkey c-MET protein; assay: ForteBio affinity assay, monkey c-Met; assay type: binding
Procedure: (§1) After the antibodies were prepared, the ForteBio affinity assay was performed according to the reported method (Estep, P et al., Determination of antibody-antigen affinity and epitope binding based on high-throughput methods. MAbs, 2013.5(2): p. 270-8).

[4] = tested on: HGF-c-MET signaling pathway; assay: Blocking of HGF-c-MET signaling pathway in Gefitinib-treated HCC827 cells (single antibody concentration); assay type: cell-based, human; details: 3 days, Cell titer glo, FIG. 2
Procedure: HCC827 cells were human non-small cell lung cancer cells (purchased from the Cell Bank of the Chinese Academy of Sciences), which highly express epidermal growth factor receptor EGFR (exon 19 deletion) and c-Met receptor. The treatment with small molecule tyrosine kinase inhibitor (TKI) Gefitinib (gefitinib, an epidermal growth factor receptor tyrosine kinase inhibitor) would induce apoptosis in HCC827 cells. If HGF was added at the same time under such conditions, the c-Met pathway would be activated to induce HCC827 to produce resistance to Gefitinib, thereby inhibiting apoptosis.
The cell density of the HCC827 cells after the expanded culture was adjusted to 2×10^4 cells/ml, added to a 96-well cell culture plate at 100 μl/well, and cultured overnight for later use. The antibody to be tested was diluted to 1000 nM with 1640 medium, HGF was diluted to 800 ng/mL, and Gefitinib was diluted to 8 μM. According to the experimental requirements, the diluted antibody at 50 μl/well, HGF at 25 μl/well, and Gefitinib at 25 μl/well were added to the 96-well plate with HCC827 cells, and supplemented with 1640 medium to reach a total volume of 200 μl/well. After culturing for 3 days at 37° C. and 5% carbon dioxide, 100 μl of the medium was removed, and then Cell titer glo (purchased from Promega) was added at 100 μl/well, and the chemiluminescent signal was collected with an microplate reader.

[5] = target: human c-MET protein (Homo sapiens, UniProt P08581); assay: ForteBio affinity assay, human c-Met; assay type: binding
Procedure: as §1

Chain of human c-MET protein (P08581 25-1390): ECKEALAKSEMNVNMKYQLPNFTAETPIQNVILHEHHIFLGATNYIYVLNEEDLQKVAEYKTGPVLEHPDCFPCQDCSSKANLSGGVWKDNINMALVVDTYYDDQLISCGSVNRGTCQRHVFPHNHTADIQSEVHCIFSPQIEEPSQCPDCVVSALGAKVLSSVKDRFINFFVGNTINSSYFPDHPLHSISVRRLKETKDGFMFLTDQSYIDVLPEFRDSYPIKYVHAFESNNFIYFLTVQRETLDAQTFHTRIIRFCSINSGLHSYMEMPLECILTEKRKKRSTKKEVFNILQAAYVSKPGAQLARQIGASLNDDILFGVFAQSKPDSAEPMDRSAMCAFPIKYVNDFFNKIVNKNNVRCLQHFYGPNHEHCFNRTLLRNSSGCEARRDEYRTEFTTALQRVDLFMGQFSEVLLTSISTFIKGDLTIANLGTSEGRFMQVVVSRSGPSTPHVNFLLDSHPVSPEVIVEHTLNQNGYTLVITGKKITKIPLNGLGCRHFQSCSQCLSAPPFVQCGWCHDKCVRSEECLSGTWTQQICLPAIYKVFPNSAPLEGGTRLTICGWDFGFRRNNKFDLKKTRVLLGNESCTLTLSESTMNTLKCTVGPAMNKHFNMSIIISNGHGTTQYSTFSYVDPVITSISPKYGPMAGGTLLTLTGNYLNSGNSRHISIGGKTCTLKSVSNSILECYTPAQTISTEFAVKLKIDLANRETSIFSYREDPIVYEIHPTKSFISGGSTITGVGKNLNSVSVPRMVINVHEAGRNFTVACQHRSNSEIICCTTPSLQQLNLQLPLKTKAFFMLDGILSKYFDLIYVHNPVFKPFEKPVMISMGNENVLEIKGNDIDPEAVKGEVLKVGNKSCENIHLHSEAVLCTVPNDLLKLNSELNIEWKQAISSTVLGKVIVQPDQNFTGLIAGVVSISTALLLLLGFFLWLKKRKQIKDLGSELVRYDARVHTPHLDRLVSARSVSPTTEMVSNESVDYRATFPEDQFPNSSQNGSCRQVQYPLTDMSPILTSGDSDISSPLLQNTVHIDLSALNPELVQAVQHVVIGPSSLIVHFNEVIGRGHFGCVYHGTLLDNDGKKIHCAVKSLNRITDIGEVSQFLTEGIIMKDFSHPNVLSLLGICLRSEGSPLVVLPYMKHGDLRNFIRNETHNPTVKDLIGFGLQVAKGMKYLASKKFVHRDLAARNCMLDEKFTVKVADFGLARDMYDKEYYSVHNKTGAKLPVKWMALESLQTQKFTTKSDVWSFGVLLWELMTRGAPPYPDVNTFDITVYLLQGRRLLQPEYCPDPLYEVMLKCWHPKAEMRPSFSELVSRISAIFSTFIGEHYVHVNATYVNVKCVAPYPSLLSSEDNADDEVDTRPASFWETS

Molecule | tumor (volume) inhibition rate (TGI) [1] [%] | ADCC effect [2] | Koff [3] [s⁻¹] | Kon [3] [M⁻¹ s⁻¹] | restoring the proliferation inhibitory effect of Gefitinib on HCC827 cells by blocking HGF-c-MET signaling [4] | Koff [5] [s⁻¹] | Kon [5] [M⁻¹ s⁻¹]
B1 | 74.5 | stronger ADCC effect than the wild-type antibody containing fucose | – | – | – | – | –
B2 | – | – | 0.000426 | 369000 | could restore the proliferation inhibitory effect of Gefitinib on HCC827 cells | 6.71e-06 | 229000
B3 | – | – | 0.000947 | 324000 | could restore the proliferation inhibitory effect of Gefitinib on HCC827 cells | 0.000369 | 220000
